In patent publication US20250011363A1, “OPTIMIZED SHORTENED PEPTIDE THAT BINDS TO ACETYLCHOLINE RECEPTOR, AND USE THEREOF” (SKINMED CO., LTD., priority 2021, published 2025):

Molecular target: acetylcholine receptor (Homo sapiens, UniProt P02708)
Assay: SPR binding affinity (RU) of optimized 5mer/6mer/7mer peptides, Examples 6-7
Settings: 6mer-1 Top sequence; SPR; peptides tested at 10 μM
Method in brief: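 600 peptides per series (5mer, 6mer-1, 6mer-2), made from high- or low-frequency amino acid combinations, are screened by SPR at 10 μM; binding is recorded in RU.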

Chain of acetylcholine receptor (P02708 21-457): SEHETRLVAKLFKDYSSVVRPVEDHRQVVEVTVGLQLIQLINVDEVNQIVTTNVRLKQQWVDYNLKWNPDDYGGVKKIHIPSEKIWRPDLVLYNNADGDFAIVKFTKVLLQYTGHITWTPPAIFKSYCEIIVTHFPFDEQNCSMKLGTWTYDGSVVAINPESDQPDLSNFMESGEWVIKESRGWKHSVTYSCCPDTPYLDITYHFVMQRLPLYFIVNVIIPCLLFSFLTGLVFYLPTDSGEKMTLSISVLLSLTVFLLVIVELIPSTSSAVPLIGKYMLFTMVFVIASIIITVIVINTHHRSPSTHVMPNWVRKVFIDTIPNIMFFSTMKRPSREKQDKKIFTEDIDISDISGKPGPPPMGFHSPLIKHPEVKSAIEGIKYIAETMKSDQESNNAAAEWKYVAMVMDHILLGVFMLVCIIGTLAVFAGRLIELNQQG

Row | Substance | Binding affinity [Ru]
1 | 6mer-1-289 (RKRYYR) | 153
2 | 6mer-1-246 (RRLVSR) | 122
3 | 6mer-1-258 (KKLQYK) | 137

Same assay, conditions: 6mer-2 Top sequence; SPR; peptides tested at 10 μM

Row | Substance | Binding affinity [Ru]
4 | 6mer-2-189 (RWQCKK) | 121
5 | 6mer-2-201 (KLFLRR) | 148
6 | 6mer-2-52 (KRQRKK) | 136

Same assay, conditions: SPR, Resonance Units; 5mer Bottom sequence (bottom combinations); peptides tested at 10 μM

Row | Substance | Binding affinity [Ru]
7 | 5mer-669 (RNPER) | 24
8 | 5mer-926 (RNCWK) | 22
9 | 5mer-654 (KEWNR) | 27
10 | 5mer-1074 (RPCPR) | 17
11 | 5mer-729 (KEPDK) | 23
12 | 5mer-971 (KMTGK) | 12
13 | 5mer-634 (RMMMR) | 26
14 | 5mer-791 (KTKMR) | 26
15 | 5mer-932 (RTAWK) | 27
16 | 5mer-671 (KMNAK) | 21

Same assay, conditions: SPR, Resonance Units; peptides tested at 10 μM; 6mer-1 Bottom sequence

Row | Substance | Binding affinity [Ru]
17 | 6mer-1-1011 (RKKPEK) | 35

Same assay, conditions: SPR, Resonance Units; peptides tested at 10 μM; 6mer-1 Bottom sequence (Table 11)

Row | Substance | Binding affinity [Ru]
18 | 6mer-1-726 (KKHSMK) | 33

Same assay, conditions: SPR, Resonance Units; peptides tested at 10 μM; 6mer-2 Bottom sequence

Row | Substance | Binding affinity [Ru]
19 | 6mer-2-922 (KDNVRR) | 41
20 | 6mer-2-841 (KPNHRK) | 33
21 | 6mer-2-621 (RHEPKR) | 32
22 | 6mer-2-726 (KHHKKK) | 25

Same assay, conditions: SPR, Resonance Units; peptides tested at 10 μM; 6mer-2 Top sequence

Row | Substance | Binding affinity [Ru]
23 | 6mer-2-529 (KQQRKR) | 124
24 | 6mer-2-500 (KRICRR) | 146
25 | 6mer-2-434 (RVIRRK) | 154
26 | 6mer-2-478 (KWYTRK) | 145

Same assay, conditions: SPR, Resonance Units; peptides tested at 10 μM; 6mer-2 Top sequence (Table 12)

Row | Substance | Binding affinity [Ru]
27 | 6mer-2-248 (RSYTRR) | 154
28 | 6mer-2-383 (KLVRRK) | 128
29 | 6mer-2-254 (KRIQRR) | 148
30 | 6mer-2-285 (RRIQRR) | 142

Same assay, conditions: SPR, peptides at 10 μM; 6mer-2 Bottom sequence

Row | Substance | Binding affinity [Ru]
31 | 6mer-2-1056 (RNDERK) | 22
32 | 6mer-2-1174 (RCEPRK) | 21
33 | 6mer-2-1137 (RTDFKR) | 22
34 | 6mer-2-1197 (KNCIKK) | 23
35 | 6mer-2-1075 (RHMERK) | 31

Same assay, conditions: SPR, peptides tested at 10 μM; 5mer Top sequence

Row | Substance | Binding affinity [Ru]
36 | 5mer-383 (RWQRK) | 56
37 | 5mer-135 (RRLLR) | 64
38 | 5mer-36 (RRLQK) | 60
39 | 5mer-119 (KQIRK) | 60
40 | 5mer-404 (KGYLK) | 83
41 | 5mer-486 (RWLQR) | 53
42 | 5mer-94 (RWFQR) | 50
43 | 5mer-377 (KGFYK) | 67
44 | 5mer-468 (RWQCK) | 54
45 | 5mer-478 (RVQTK) | 75
46 | 5mer-390 (KRFCR) | 64

Same assay, conditions: SPR, peptides tested at 10 μM; 6mer-1 Bottom sequence (Table 11)

Row | Substance | Binding affinity [Ru]
47 | 6mer-1-952 (KRHDKK) | 28
48 | 6mer-1-902 (RRDKMK) | 39
49 | 6mer-1-991 (RKAHDK) | 25
50 | 6mer-1-941 (RKTPKK) | 29

Same assay, conditions: SPR, peptides tested at 10 μM; 6mer-1 Top sequence

Row | Substance | Binding affinity [Ru]
51 | 6mer-1-565 (KRSIRR) | 151
52 | 6mer-1-432 (RKGIQK) | 139
53 | 6mer-1-500 (RKLQSK) | 151
54 | 6mer-1-411 (RRQRSR) | 121
55 | 6mer-1-470 (KKWVYR) | 148
56 | 6mer-1-511 (RKVYRR) | 136
57 | 6mer-1-407 (KRLRTR) | 153
58 | 6mer-1-534 (KKRLCR) | 126
59 | 6mer-1-593 (RKVYRK) | 148

Same assay, conditions: SPR, peptides tested at 10 μM; 6mer-1 Top sequence (top combinations)

Row | Substance | Binding affinity [Ru]
60 | 6mer-1-120 (RRRYSR) | 124
61 | 6mer-1-136 (RRWLYK) | 148

Same assay, conditions: SPR; XRRGVRR-7mer and RRGVRRX-7mer

Row | Substance | Binding affinity, values relative to the RRGVRR sequence
62 | 3659 (DRRGVRR) [compound 3659] | 159

Same assay, conditions: SPR; peptides tested at 10 μM; 5mer Bottom sequence

Row | Substance | Binding affinity [Ru]
63 | 5mer-1189 (RKMDK) | 11
64 | 5mer-1161 (KCHDR) | 21
65 | 5mer-842 (RHNVK) | 20
66 | 5mer-868 (KMHFK) | 18
67 | 5mer-863 (REANR) | 16
